Reference: the supplement of paper PMC10065799, “High-throughput profiling of sequence recognition by tyrosine kinases and SH2 domains using bacterial peptide display” (eLife, 2023)

How the values were obtained:
AncSZ = assay: phosphorylation enrichment, bacterial display (enrichment ratio); higher = better substrate or ligand; peptides without Tyr show the background
EPHB1 = EPHB1 (UniProt P54762); assay: as above
EPHB2 = EPHB2 (UniProt P29323); assay: as above
FGFR1 = FGFR1 (UniProt P11362); assay: as above
FGFR3 = FGFR3 (UniProt P22607); assay: as above
Sequence of FGFR3 (P22607 whole entry, looked up): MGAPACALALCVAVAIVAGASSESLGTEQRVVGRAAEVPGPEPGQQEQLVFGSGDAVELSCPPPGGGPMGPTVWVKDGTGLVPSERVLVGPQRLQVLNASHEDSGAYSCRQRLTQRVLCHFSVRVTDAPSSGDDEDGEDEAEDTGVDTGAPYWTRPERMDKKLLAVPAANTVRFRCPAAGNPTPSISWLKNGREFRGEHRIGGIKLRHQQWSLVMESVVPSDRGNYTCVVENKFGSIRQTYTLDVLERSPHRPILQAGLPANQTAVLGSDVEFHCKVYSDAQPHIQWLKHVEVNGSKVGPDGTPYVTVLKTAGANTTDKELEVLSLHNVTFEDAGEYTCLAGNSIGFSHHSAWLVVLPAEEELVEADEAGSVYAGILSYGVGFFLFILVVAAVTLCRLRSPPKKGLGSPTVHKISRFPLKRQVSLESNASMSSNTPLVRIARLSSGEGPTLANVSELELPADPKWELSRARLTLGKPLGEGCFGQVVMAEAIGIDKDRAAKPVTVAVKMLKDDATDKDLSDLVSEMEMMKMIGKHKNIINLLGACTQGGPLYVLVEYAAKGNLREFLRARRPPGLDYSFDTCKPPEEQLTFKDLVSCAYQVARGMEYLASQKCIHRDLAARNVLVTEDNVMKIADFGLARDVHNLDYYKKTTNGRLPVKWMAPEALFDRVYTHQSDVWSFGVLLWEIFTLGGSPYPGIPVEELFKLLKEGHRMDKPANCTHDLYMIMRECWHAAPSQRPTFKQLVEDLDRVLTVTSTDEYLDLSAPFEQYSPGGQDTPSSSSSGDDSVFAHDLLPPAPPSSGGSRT

Fer (mouse) = assay: as above
Fes = Fes (UniProt P07332); assay: as above
Fyn = Fyn (UniProt P06241); assay: as above
Sequence of Fyn (P06241 whole entry, looked up): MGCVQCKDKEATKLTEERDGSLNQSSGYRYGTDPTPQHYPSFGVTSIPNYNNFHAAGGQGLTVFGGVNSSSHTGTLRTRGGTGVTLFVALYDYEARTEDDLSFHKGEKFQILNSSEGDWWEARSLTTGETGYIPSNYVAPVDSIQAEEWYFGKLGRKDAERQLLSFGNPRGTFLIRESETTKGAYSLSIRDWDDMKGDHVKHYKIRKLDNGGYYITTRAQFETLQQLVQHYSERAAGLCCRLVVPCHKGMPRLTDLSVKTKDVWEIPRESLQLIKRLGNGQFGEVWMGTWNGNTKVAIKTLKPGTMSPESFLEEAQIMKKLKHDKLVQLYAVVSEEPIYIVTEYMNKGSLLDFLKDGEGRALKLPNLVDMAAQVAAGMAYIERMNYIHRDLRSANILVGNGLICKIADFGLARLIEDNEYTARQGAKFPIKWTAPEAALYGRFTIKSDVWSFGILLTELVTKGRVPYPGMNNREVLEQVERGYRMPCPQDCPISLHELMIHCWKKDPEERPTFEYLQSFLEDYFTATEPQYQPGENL

Hck = Hck (UniProt P08631); assay: as above
Jak2 = Jak2 (UniProt O60674); assay: as above
Sequence of Jak2 (O60674 whole entry, looked up): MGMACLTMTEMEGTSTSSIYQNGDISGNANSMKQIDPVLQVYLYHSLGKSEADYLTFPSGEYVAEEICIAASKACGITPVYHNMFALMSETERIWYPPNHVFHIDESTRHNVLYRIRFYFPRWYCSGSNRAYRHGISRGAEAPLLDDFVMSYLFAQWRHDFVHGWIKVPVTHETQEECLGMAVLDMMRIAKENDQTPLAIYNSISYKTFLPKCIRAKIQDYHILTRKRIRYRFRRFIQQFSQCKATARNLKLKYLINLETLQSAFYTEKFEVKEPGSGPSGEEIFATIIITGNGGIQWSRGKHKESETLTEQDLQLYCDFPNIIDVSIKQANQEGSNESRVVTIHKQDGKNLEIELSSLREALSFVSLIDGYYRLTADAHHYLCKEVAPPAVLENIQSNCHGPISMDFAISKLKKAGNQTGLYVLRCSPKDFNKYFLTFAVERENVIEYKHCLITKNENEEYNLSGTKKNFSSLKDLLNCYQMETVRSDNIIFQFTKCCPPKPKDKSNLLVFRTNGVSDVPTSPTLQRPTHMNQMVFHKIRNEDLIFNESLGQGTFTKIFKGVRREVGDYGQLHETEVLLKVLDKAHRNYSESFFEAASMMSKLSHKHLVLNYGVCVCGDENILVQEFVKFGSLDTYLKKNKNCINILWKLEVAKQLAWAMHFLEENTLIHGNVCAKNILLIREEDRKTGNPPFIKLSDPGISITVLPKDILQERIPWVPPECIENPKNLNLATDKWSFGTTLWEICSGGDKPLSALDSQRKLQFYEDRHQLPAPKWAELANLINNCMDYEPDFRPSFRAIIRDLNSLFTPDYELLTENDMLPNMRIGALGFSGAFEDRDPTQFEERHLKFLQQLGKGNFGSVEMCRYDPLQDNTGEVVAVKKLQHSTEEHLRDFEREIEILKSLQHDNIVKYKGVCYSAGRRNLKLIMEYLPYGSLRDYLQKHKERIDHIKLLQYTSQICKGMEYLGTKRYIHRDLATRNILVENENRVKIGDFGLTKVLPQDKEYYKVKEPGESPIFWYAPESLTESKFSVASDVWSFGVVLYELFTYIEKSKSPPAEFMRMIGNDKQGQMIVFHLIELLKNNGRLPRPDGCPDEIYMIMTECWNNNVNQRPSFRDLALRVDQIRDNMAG

MERTK = MERTK (UniProt Q12866); assay: as above
c-Abl (mouse) = assay: as above
c-Src = assay: as above
Grb2 SH2 = Grb2 SH2 (UniProt P62993); assay: SH2 binding enrichment of the phosphorylated peptide, bacterial display (enrichment ratio); higher = better substrate or ligand; peptides without Tyr show the background
Sequence of Grb2 SH2 (P62993 whole entry, looked up): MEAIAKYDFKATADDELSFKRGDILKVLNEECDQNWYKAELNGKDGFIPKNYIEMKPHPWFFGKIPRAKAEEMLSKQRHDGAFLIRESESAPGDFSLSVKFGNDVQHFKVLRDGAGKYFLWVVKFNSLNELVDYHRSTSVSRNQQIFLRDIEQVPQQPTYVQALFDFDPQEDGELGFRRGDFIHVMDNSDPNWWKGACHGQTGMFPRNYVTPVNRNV

SHP2-C SH2 = assay: as above
c-Src SH2 = assay: as above
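For SH2 binding enrichment of the phosphorylated peptide, bacterial display in this document: peptide library displayed on the E. coli surface as eCPX fusions, selected cells deep-sequenced, score is each peptide's frequency after selection divided by its frequency in the input.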
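For phosphorylation enrichment, bacterial display in this document: 11-residue human phosphosite peptides and single-mutation variants displayed on the E. coli surface, counted by deep sequencing, each peptide's frequency after selection divided by its frequency in the unselected input library; frequency after pTyr selection over input frequency; kinase dosed for 20-30% of maximal phosphorylation in three min.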

Sequence of EPHB2 (P29323 whole entry, looked up): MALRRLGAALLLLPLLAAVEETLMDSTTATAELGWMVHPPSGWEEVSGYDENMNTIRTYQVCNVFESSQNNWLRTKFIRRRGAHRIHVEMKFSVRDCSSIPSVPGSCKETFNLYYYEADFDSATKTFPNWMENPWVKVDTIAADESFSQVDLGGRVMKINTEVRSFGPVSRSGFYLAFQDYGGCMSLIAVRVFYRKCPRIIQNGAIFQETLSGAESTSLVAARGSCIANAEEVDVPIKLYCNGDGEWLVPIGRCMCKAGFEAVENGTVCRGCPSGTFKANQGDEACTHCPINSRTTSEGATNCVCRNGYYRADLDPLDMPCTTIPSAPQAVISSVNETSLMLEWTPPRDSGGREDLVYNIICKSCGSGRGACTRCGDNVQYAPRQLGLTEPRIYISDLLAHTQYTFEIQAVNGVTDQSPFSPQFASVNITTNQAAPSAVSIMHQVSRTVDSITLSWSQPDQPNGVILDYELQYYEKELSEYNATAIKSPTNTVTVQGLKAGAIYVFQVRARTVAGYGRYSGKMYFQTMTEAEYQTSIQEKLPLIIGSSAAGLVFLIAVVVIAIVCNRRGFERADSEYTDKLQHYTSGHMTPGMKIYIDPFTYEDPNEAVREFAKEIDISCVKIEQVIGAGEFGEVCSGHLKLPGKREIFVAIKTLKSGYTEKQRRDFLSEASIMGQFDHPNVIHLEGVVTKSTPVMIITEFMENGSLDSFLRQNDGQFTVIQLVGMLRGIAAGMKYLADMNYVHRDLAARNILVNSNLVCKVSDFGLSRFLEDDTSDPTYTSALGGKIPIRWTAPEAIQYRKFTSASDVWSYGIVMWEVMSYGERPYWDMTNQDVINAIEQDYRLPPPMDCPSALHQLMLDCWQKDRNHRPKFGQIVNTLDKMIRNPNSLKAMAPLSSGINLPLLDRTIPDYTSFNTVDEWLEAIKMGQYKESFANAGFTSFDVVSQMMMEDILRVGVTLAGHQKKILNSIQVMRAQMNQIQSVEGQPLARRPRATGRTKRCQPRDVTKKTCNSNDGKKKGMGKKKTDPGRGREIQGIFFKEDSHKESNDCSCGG
Sequence of EPHB1 (P54762 whole entry, looked up): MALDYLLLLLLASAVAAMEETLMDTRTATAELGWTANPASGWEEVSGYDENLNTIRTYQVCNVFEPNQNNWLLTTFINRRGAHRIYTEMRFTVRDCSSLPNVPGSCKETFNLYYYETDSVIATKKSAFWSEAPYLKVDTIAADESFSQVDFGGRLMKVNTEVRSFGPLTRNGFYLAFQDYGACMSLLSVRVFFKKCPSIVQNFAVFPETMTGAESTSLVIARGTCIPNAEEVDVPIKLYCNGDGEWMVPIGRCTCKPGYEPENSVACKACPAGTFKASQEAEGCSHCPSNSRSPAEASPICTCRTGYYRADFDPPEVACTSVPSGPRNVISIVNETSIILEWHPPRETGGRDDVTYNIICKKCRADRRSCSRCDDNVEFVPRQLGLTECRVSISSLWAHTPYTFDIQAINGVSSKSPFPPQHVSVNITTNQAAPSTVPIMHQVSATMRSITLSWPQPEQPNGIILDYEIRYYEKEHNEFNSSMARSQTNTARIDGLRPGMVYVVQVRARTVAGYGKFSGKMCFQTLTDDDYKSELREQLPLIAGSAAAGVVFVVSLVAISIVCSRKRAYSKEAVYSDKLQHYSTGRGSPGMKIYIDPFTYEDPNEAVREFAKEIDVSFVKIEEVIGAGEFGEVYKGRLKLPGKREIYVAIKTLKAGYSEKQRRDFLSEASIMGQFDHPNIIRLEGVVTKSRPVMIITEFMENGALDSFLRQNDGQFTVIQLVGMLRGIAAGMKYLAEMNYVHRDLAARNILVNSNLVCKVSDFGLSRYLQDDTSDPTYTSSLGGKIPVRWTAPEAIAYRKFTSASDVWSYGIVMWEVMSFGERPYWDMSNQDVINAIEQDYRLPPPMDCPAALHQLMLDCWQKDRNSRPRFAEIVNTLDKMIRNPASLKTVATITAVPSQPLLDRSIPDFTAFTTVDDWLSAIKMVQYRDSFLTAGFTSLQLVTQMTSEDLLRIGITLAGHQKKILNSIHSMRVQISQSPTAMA

Sequence | phosphorylation enrichment (AncSZ) | phosphorylation enrichment (EPHB1) | phosphorylation enrichment (EPHB2) | phosphorylation enrichment (FGFR1) | phosphorylation enrichment (FGFR3) | phosphorylation enrichment (Fer (mouse)) | phosphorylation enrichment (Fes) | phosphorylation enrichment (Fyn) | phosphorylation enrichment (Hck) | phosphorylation enrichment (Jak2) | phosphorylation enrichment (MERTK) | phosphorylation enrichment (c-Abl (mouse)) | phosphorylation enrichment (c-Src) | SH2 binding enrichment (Grb2 SH2) | SH2 binding enrichment (SHP2-C SH2) | SH2 binding enrichment (c-Src SH2)
KKYPDYIQIAM [SGMS2_Y59] | 1.45 | 10 | 1.69 | 9.52 | 5.93 | 0.52 | 0.949 | 0.448 | 0.581 | 1.46 | 0.435 | 0.729 | 0.483 | 1.04 | 0.787 | 0.644
KLLPEYPGVLS [DHFR2_Y163] | 0.685 | 0.349 | 0.399 | 0.379 | 0.564 | 0.493 | 0.657 | 0.46 | 0.491 | 0.598 | 0.385 | 0.497 | 0.458 | 0.952 | 0.809 | 0.574
KLVQLYDVCTK [BTK_Y461_G462D] | 0.994 | 12.1 | 11.7 | 0.58 | 0.742 | 2.56 | 1.03 | 1.37 | 4.92 | 0.79 | 7.27 | 1.25 | 1.56 | 0.984 | 0.865 | 0.881
KNDSNYVVKGN [KIT_Y823] | 0.539 | 0.303 | 0.318 | 0.55 | 0.447 | 0.323 | 0.635 | 0.37 | 0.406 | 0.482 | 0.382 | 0.568 | 0.346 | 0.814 | 0.659 | 0.546
KNKNRCKNILP [PTPN11_Y279_Y279C] | 0.765 | 0.448 | 0.503 | 0.617 | 0.959 | 0.488 | 0.942 | 0.374 | 0.481 | 1.48 | 0.581 | 1.37 | 0.565 | 0.861 | 0.598 | 0.892
KNNDGYTDFAE [MCFD2_Y135_I136T_YF] | 0.999 | 0.578 | 0.594 | 0.559 | 0.732 | 0.529 | 1.07 | 0.522 | 0.529 | 0.882 | 0.42 | 0.731 | 0.449 | 0.869 | 0.8 | 5.75
KNNSIYVLANI [VNN1_Y134_V136L] | 1.17 | 0.793 | 0.668 | 0.947 | 1.08 | 2.7 | 1.24 | 1.14 | 1.15 | 1.16 | 1.95 | 1.05 | 1.58 | 1.14 | 1.67 | 0.796
KNRDVSSSDFF [USP24_Y2134_Y2134S_YF] | 0.701 | 0.444 | 0.393 | 0.365 | 0.539 | 0.427 | 0.71 | 0.432 | 0.425 | 0.641 | 0.436 | 0.583 | 0.399 | 0.882 | 0.635 | 0.424
